Data on 83 variants can be found in the RNAGym collection of RNA variant scans (doi:10.1073/pnas.2313332121).

The labels stand for the following.
B1: TPR 5TU (parent)
chain: GGAUCUUCUCGAUCUAACAAAAAAGACAAAUCUGCCACAAAGCUUGAGAGCAUCUUCGGAUGCAGAGGCGGCAGCCUUCGGUGGCGCGAUAGCGCCAACGUUCUCAACUAUGACACGCAAAACGCGUGCUCCGUUGAAUGGAGUUUAUCAUG

Fewer inactive variants are shown than the library holds.

In this series the parent is B1. The series is described as follows: polymerase ribozyme fitness, log enrichment relative to wild type (log ratio); higher = more active; in vitro selection for triplet polymerase activity. An outline of the steps: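 Fitness compares each genotype's enrichment to that of the wild type on a logarithmic scale, averaging replicates with inverse-variance weights. The logarithm is base 2. Enrichment came from Illumina sequencing of input and output libraries after one triplicate round of in vitro selection, which included frozen incubation at −7 °C, of PCR-built, transcribed mutant libraries of each subunit of a heterodimeric triplet polymerase ribozyme. Only genotypes with ≥10 input reads and ≥1 read per output were kept.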
Regarding A16C A89G, the “polymerase ribozyme fitness (log ratio)” value is -2.25.

As for A16C A24G A47C C85G A97C A120G, the “polymerase ribozyme fitness (log ratio)” value was not above -4.2.

With U15G C129A, the “polymerase ribozyme fitness (log ratio)” value was -2.55.

In the case of A16U C35A G74A G80C G83U G86A A97U, the “polymerase ribozyme fitness (log ratio)” value was not above -4.2.

In the case of C14G C75A G84U, the “polymerase ribozyme fitness (log ratio)” value is -4.14.

Regarding C14U G83C A106C, the “polymerase ribozyme fitness (log ratio)” value was -2.96.

Regarding A16C A17G C76G C96A A107G, the “polymerase ribozyme fitness (log ratio)” value was not above -4.2.

For A16G U31C C51U U53G C125A G140C, the “polymerase ribozyme fitness (log ratio)” value is not above -4.2.

As for A16G C27G G70C C87U A119U G133C G143A, the “polymerase ribozyme fitness (log ratio)” value is not above -4.2.

On to A16G C32A C38G U56A A60C C87A C123U A150C, for which the “polymerase ribozyme fitness (log ratio)” value was not above -4.2.

A16C G83C U146G U148C C149A: the “polymerase ribozyme fitness (log ratio)” value is not above -4.2.

As to A16G C35A, the “polymerase ribozyme fitness (log ratio)” value was -3.53.

As for C14G C85G C103A, the “polymerase ribozyme fitness (log ratio)” value is not above -4.2.

With A16C A24U G46C C105G C108G, the “polymerase ribozyme fitness (log ratio)” value is not above -4.2.

On to A16G C38U U82A C96G, for which the “polymerase ribozyme fitness (log ratio)” value was -1.

Regarding A16U A17G C85G, the “polymerase ribozyme fitness (log ratio)” value is -4.18.

On to U15G A24U A60G G92U, for which the “polymerase ribozyme fitness (log ratio)” value turned out to be 0.475.

Turning to C14U U55A G126A C132U, the “polymerase ribozyme fitness (log ratio)” value was -1.73.

Take C14G C85U C103U: the “polymerase ribozyme fitness (log ratio)” value was -3.1.

For the variant C14U C95U U101G C105U C125U A142U, the “polymerase ribozyme fitness (log ratio)” value was not above -4.2.

Consider A16C A19G G34A G71A C87G U145A U146C, for which the “polymerase ribozyme fitness (log ratio)” value was not above -4.2.

For C14G G81A C87U A106C G140U, the “polymerase ribozyme fitness (log ratio)” value was not above -4.2.

Turning to U15A G58A G86A U144G, the “polymerase ribozyme fitness (log ratio)” value amounted to 0.552.

Regarding A16C A20G C27U A60G G117A, the “polymerase ribozyme fitness (log ratio)” value is -3.38.

For C14U G42A C87U G136A, the “polymerase ribozyme fitness (log ratio)” value is not above -4.2.

Regarding A16U C38U C51U A73G G92U G94A A98C U151A, the “polymerase ribozyme fitness (log ratio)” value is -3.96.

As for A16U G25C C72G C76G C96U A107U A115G C129U, the “polymerase ribozyme fitness (log ratio)” value was not above -4.2.

As for A16C C36G G92A C108A A113G U139A, the “polymerase ribozyme fitness (log ratio)” value was not above -4.2.

With A16U A49G, the “polymerase ribozyme fitness (log ratio)” value is -1.93.

U15G U45C G71A G94U U134C A138U U145G: the “polymerase ribozyme fitness (log ratio)” value was not above -4.2.

Consider U15G A24C G59C G68C C79G G81U C95A C132U, for which the “polymerase ribozyme fitness (log ratio)” value is not above -4.2.

In the case of U15C U56G A113U, the “polymerase ribozyme fitness (log ratio)” value was -0.657.

For the variant A16U A28U C54U G117C, the “polymerase ribozyme fitness (log ratio)” value was not above -4.2.

Take C14U A16U C27A A30G G42U C51U C93A: the “polymerase ribozyme fitness (log ratio)” value is not above -4.2.

Regarding C14U A64G, the “polymerase ribozyme fitness (log ratio)” value is -4.17.

U15A C75G C108U: the “polymerase ribozyme fitness (log ratio)” value was -4.16.

As to A16C C85G, the “polymerase ribozyme fitness (log ratio)” value is -4.13.

A16C C85U: the “polymerase ribozyme fitness (log ratio)” value was -1.75.

For A16G C57G C76A, the “polymerase ribozyme fitness (log ratio)” value was -1.31.

With U15C A24G A39G G83A C99G, the “polymerase ribozyme fitness (log ratio)” value is not above -4.2.

Turning to U15C C18A G83A C93U A122U, the “polymerase ribozyme fitness (log ratio)” value is -1.53.

For U15C A37U G46U G84U U148C, the “polymerase ribozyme fitness (log ratio)” value is not above -4.2.

As to C14U G34U A49C G59C C69A A91C U139A A147C, the “polymerase ribozyme fitness (log ratio)” value was not above -4.2.

Turning to A16G G48A C57A C76U A89C C95A C116G C131A G136C, the “polymerase ribozyme fitness (log ratio)” value was not above -4.2.

In the case of A16U A20U U146A, the “polymerase ribozyme fitness (log ratio)” value was -3.95.

As to U15G G59A G83U C118G, the “polymerase ribozyme fitness (log ratio)” value is -1.13.

Take U15A G59A A60G C69A A121C G140A: the “polymerase ribozyme fitness (log ratio)” value was -3.82.

Consider A16C A19U C85U G117U A150U, for which the “polymerase ribozyme fitness (log ratio)” value was determined as 0.0374.

Turning to C14U C32G C69A, the “polymerase ribozyme fitness (log ratio)” value is not above -4.2.

With A16U A41G, the “polymerase ribozyme fitness (log ratio)” value is -1.88.

As for A16C G81A, the “polymerase ribozyme fitness (log ratio)” value is -0.894.

Take U15C A24C C93U G128U G140A U144C: the “polymerase ribozyme fitness (log ratio)” value was not above -4.2.

With C14G U15A C18U G25U C27G G62A C85G A138C, the “polymerase ribozyme fitness (log ratio)” value was not above -4.2.

U15C U61A A89G A98G: the “polymerase ribozyme fitness (log ratio)” value was -1.62.

In the case of A16U C85U U144C, the “polymerase ribozyme fitness (log ratio)” value was -2.3.

Consider C14U G140A, for which the “polymerase ribozyme fitness (log ratio)” value is not above -4.2.

For U15G C79G, the “polymerase ribozyme fitness (log ratio)” value is -3.38.

Turning to U15G A23G G50C C51G C63G C96G, the “polymerase ribozyme fitness (log ratio)” value is not above -4.2.

Consider C14G C38A A52C C57A G62A G83A A89C C96G A110C, for which the “polymerase ribozyme fitness (log ratio)” value is -3.85.

With C14U U53G, the “polymerase ribozyme fitness (log ratio)” value was -3.01.

Take U15G G50A U53A A73U C87A A113C G140U: the “polymerase ribozyme fitness (log ratio)” value was not above -4.2.

Take C14U G25C C38G G67A C69A C96U A121G A147C: the “polymerase ribozyme fitness (log ratio)” value is not above -4.2.

Regarding C14G G94A A106C G136A, the “polymerase ribozyme fitness (log ratio)” value was -3.64.

Consider U15G A39U C43U G50C G94A, for which the “polymerase ribozyme fitness (log ratio)” value is not above -4.2.

In the case of A16G A30U U44A G81A C95U C125G, the “polymerase ribozyme fitness (log ratio)” value was not above -4.2.

For the variant A16G A97G U144G, the “polymerase ribozyme fitness (log ratio)” value was -0.0952.

For the variant C14U C54U, the “polymerase ribozyme fitness (log ratio)” value is -1.87.

For C14G U15C C18U A39U A49C G80C A110C, the “polymerase ribozyme fitness (log ratio)” value was not above -4.2.

As to U15G U44G A73C G74U G80C C93U G141C, the “polymerase ribozyme fitness (log ratio)” value is not above -4.2.

With C14U A150C, the “polymerase ribozyme fitness (log ratio)” value is not above -4.2.

On to C14U G143A, for which the “polymerase ribozyme fitness (log ratio)” value is -1.26.

Turning to C14U A66C U78G C95G C108U, the “polymerase ribozyme fitness (log ratio)” value is not above -4.2.

In the case of U15G U53A A60C G83A C85U, the “polymerase ribozyme fitness (log ratio)” value was -3.78.

For A16G A52G C57U A73C C85U C96G, the “polymerase ribozyme fitness (log ratio)” value was not above -4.2.

On to A16C U31A U104G A142C, for which the “polymerase ribozyme fitness (log ratio)” value is -2.77.

As to U15G A30G C54A, the “polymerase ribozyme fitness (log ratio)” value is not above -4.2.

As to U15G U31G A40U C57A C95G C125U G140U, the “polymerase ribozyme fitness (log ratio)” value was not above -4.2.

As to U15G U53A, the “polymerase ribozyme fitness (log ratio)” value was -0.774.

Consider A16U C27A G42A U44G U45A A49C A113G U144A, for which the “polymerase ribozyme fitness (log ratio)” value was not above -4.2.

As for A16C C38U G50A C95G C116G, the “polymerase ribozyme fitness (log ratio)” value was -4.14.

U15A A29U G59U C95U A120G U127G U135C G143A: the “polymerase ribozyme fitness (log ratio)” value is not above -4.2.

For the variant A16C A52G U55A G94U A107G, the “polymerase ribozyme fitness (log ratio)” value was not above -4.2.

C14U G83U C95U C116U: the “polymerase ribozyme fitness (log ratio)” value is -1.49.
